Reference: patent US7439329B2, “GEF-H1b: biomarkers, complexes assays and therapeutic uses thereof” (Sugen, Inc., priority 2002, dated 2008)

Assays:
[1] = molecular target: T1, GEF-H1S (Homo sapiens, UniProt Q92974, INS962GETLAETWTR); assay: Pull-down of GEF-H1 with PAK4 domains and biotinylated PAK4 peptides; type: binding; settings: biotinylated PAK4 peptides linked to streptavidin beads
T1 sequence (Q92974 with tags, fused parts or gaps): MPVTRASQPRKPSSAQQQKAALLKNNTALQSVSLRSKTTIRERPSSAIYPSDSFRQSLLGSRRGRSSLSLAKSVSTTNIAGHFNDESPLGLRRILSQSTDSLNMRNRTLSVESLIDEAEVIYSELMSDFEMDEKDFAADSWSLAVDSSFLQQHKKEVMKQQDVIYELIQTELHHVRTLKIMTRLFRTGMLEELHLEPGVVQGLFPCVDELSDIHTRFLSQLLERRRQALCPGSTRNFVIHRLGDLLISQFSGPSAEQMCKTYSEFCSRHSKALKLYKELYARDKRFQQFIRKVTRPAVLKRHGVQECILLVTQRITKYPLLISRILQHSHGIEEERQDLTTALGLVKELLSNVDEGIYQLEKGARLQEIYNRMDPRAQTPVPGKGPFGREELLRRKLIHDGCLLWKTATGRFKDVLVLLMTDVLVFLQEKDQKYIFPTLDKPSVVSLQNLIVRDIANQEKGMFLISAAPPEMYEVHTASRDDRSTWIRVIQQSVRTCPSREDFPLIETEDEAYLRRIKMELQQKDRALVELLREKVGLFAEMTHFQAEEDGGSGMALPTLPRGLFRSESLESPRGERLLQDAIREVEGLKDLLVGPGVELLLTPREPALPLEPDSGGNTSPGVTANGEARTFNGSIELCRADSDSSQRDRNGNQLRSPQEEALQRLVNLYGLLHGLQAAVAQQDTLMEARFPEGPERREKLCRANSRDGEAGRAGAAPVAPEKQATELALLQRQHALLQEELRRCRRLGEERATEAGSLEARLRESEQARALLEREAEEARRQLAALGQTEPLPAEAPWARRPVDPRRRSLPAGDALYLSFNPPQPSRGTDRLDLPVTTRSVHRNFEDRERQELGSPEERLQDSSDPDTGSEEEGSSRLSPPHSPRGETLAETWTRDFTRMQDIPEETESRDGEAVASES
Description: (§1) FIG. 1: (SEQ ID NOs 32-34 respectively in order of appearance) Direct binding of GEF-H1 to PAK4. Lysates were prepared from 293T cells over expressing (a) myc tagged PAK4 alleles or subdomains and incubated with GST, GST-GEF-H1 (787-921) and GST-Maguin-like bound to Glutathione beads (1,2,3,4 bead designation) or (b) GFP-GEF-H1 and incubated with PAK4 biotinylated peptides (291-355) and (276-324) linked to streptavidin beads. An equivalent amount of beads and excess lysates (500 ug) were used. Eluates of beads and total lysates were analysed by SDS-PAGE and immunoblotted with myc or GEF-H1 antiserum; (c) represents a PAK4 gene schematic outlining the regions of PAK4 used to identify the GEF-H1 interaction domain (GID). d, alignment of the GID defined by the minimal binding region of PAK4 with PAK5 and PAK6.
(§2) To confirm the in vitro interaction of GEF-H1S with PAK4, bacterially expressed GST-fusion proteins were generated with the identical sequences isolated by phage display, encoding either amino acids 763-921 of GEF-H1S or amino acids 385-555 from the Maguin-2-like protein. These fusion proteins were bound to glutathione beads and utilized in binding assays with 293T lysates expressing exogenous PAK4.
(§3) Biotinylated peptides derived from the N-terminal region of PAK4 sequence were used to further map the GEF-H1 binding site. […]

[2] = molecular target: T2, GEF-H1S (Homo sapiens, UniProt Q92974, INS962GETLAETWTR); assay: as above; type: binding; settings: PAK4 domain expressed in 293T lysate; GST-GEF-H1S (aa763-921) on glutathione beads
T2 sequence (Q92974 with tags, fused parts or gaps): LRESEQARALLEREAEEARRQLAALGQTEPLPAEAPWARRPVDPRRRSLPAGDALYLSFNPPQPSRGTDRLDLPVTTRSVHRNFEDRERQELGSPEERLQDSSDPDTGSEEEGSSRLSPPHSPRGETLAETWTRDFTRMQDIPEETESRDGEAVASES
Description: as §1, §2, §3

[3] = test system: GEF-H1S; assay: Co-transfection of GEF-H1S and PAK4 alleles, Western blot with phospho-specific GEF-H1 antibodies; type: cell-based, human
Description: To confirm that GEF-H1S phosphorylation by PAK4 occurs at these sites in vivo, co-transfection assays were performed and analyzed phosphorylation of GEF-H1 by use of a phospho-specific antibody directed against phospho-serine 810. This antibody is specific for GEF-H1 that is phosphorylated on Ser 810. […] Expression of the kinase-dead PAK4 is also able to inhibit endogenous PAK4 basal phosphorylation of GEF-H1S on Ser 810.
In this experiment GEF-H1S expression vector was pRSV/Rc and the PAK4 expression vector was pcDNA. Lysates were prepared from the transfected 293T cells and analyzed by Western Blot using the anti-1009 reagent. […] These phosphospecific antibodies can be used to detect PAK4 activity in tumors by virtue of its specific phosphorylation of GEF-H1.

[4] = co-expression with GEF-H1S in mammalian (293T) cells, anti-1009 Western blot, relative to basal phosphorylation

B1: amino acids 291-355: biotinylated PAK4 peptide covering a more C-terminal region (peptide, UniProt O96013 291-355, looked up, fragment)
chain: SPQREPQRVSHEQFRAALQLVVDPGDPRSYLDNFIKIGEGSTGIVCIATVRSSGKLVAVKKMDLR
modifications: biotin
notes: biotinylated PAK4 peptide covering a more C-terminal region
interaction with GEF-H1S [1]: did not

B2: amino acids 1-309: amino-terminal regulatory domain of PAK4 alone (protein, UniProt O96013 1-309, looked up, fragment)
chain: MFGKRKKRVEISAPSNFEHRVHTGFDQHEQKFTGLPRQWQSLIEESARRPKPLVDPACITSIQPGAPKTIVRGSKGAKDGALTLLLDEFENMSVTRSNSLRRDSPPPPARARQENGMPEEPATTARGGPGKAGSRGRFAGHSEAGGGSGDRRRAGPEKRPKSSREGSGGPQESSRDKRPLSGPDVGTPQPAGLASGAKLAAGRPFNTYPRADTDHPSRGAQGEPHDVAPNGPSAGGLAIPQSSSSSSRPPTRARGAPSPGVLGPHASEPQLAPPACTPAAPAVPGPPGPRSPQREPQRVSHEQFRAALQ
interaction with GEF-H1S [2]: did not stably interact

B3: S474E: activated PAK4 mutant (protein)
chain: MFGKRKKRVEISAPSNFEHRVHTGFDQHEQKFTGLPRQWQSLIEESARRPKPLVDPACITSIQPGAPKTIVRGSKGAKDGALTLLLDEFENMSVTRSNSLRRDSPPPPARARQENGMPEEPATTARGGPGKAGSRGRFAGHSEAGGGSGDRRRAGPEKRPKSSREGSGGPQESSRDKRPLSGPDVGTPQPAGLASGAKLAAGRPFNTYPRADTDHPSRGAQGEPHDVAPNGPSAGGLAIPQSSSSSSRPPTRARGAPSPGVLGPHASEPQLAPPACTPAAPAVPGPPGPRSPQREPQRVSHEQFRAALQLVVDPGDPRSYLDNFIKIGEGSTGIVCIATVRSSGKLVAVKKMDLRKQQRRELLFNEVVIMRDYQHENVVEMYNSYLVGDELWVVMEFLEGGALTDIVTHTRMNEEQIAAVCLAVLQALSVLHAQGVIHRDIKSDSILLTHDGRVKLSDFGFCAQVSKEVPRRKELVGTPYWMAPELISRLPYGPEVDIWSLGIMVIEMVDGEPPYFNEPPLKAMKMIRDNLPPRLKNLHKVSPSLKGFLDRLLVRDPAQRATAAELLKHPFLAKAGPPASIVPLMRQNRTR
phosphorylation of GEF-H1S on Ser 810 [3, 4]: marked increase
phosphorylation of GEF-H1S on Ser 810 ([3]; co-expression with GEF-H1S in mammalian (293T) cells, anti-1009 Western blot, relative to basal phosphorylation, listed as activated PAK4): enhanced
phosphorylation of GEF-H1S on Ser 67 ([3]; co-transfection with GEF-H1S, phospho-specific antibodies against Ser 67): stimulated phosphorylation

B4: wild type PAK4 (1-591): wild type p-21-activated kinase 4 expressed from pcDNA (protein)
chain: MFGKRKKRVEISAPSNFEHRVHTGFDQHEQKFTGLPRQWQSLIEESARRPKPLVDPACITSIQPGAPKTIVRGSKGAKDGALTLLLDEFENMSVTRSNSLRRDSPPPPARARQENGMPEEPATTARGGPGKAGSRGRFAGHSEAGGGSGDRRRAGPEKRPKSSREGSGGPQESSRDKRPLSGPDVGTPQPAGLASGAKLAAGRPFNTYPRADTDHPSRGAQGEPHDVAPNGPSAGGLAIPQSSSSSSRPPTRARGAPSPGVLGPHASEPQLAPPACTPAAPAVPGPPGPRSPQREPQRVSHEQFRAALQLVVDPGDPRSYLDNFIKIGEGSTGIVCIATVRSSGKLVAVKKMDLRKQQRRELLFNEVVIMRDYQHENVVEMYNSYLVGDELWVVMEFLEGGALTDIVTHTRMNEEQIAAVCLAVLQALSVLHAQGVIHRDIKSDSILLTHDGRVKLSDFGFCAQVSKEVPRRKSLVGTPYWMAPELISRLPYGPEVDIWSLGIMVIEMVDGEPPYFNEPPLKAMKMIRDNLPPRLKNLHKVSPSLKGFLDRLLVRDPAQRATAAELLKHPFLAKAGPPASIVPLMRQNRTR
phosphorylation of GEF-H1S on Ser 810 ([3]; co-expressed with Cdc42): enhanced
phosphorylation of GEF-H1S on Ser 810 [3, 4]: marked increase

B5: PAK4 kinase dead K350,351A: kinase inactive PAK4 mutant (protein, UniProt O96013 1-591, looked up, variant K350A K351A)
Serine/threonine-protein …: MFGKRKKRVEISAPSNFEHRVHTGFDQHEQKFTGLPRQWQSLIEESARRPKPLVDPACITSIQPGAPKTIVRGSKGAKDGALTLLLDEFENMSVTRSNSLRRDSPPPPARARQENGMPEEPATTARGGPGKAGSRGRFAGHSEAGGGSGDRRRAGPEKRPKSSREGSGGPQESSRDKRPLSGPDVGTPQPAGLASGAKLAAGRPFNTYPRADTDHPSRGAQGEPHDVAPNGPSAGGLAIPQSSSSSSRPPTRARGAPSPGVLGPHASEPQLAPPACTPAAPAVPGPPGPRSPQREPQRVSHEQFRAALQLVVDPGDPRSYLDNFIKIGEGSTGIVCIATVRSSGKLVAVAAMDLRKQQRRELLFNEVVIMRDYQHENVVEMYNSYLVGDELWVVMEFLEGGALTDIVTHTRMNEEQIAAVCLAVLQALSVLHAQGVIHRDIKSDSILLTHDGRVKLSDFGFCAQVSKEVPRRKSLVGTPYWMAPELISRLPYGPEVDIWSLGIMVIEMVDGEPPYFNEPPLKAMKMIRDNLPPRLKNLHKVSPSLKGFLDRLLVRDPAQRATAAELLKHPFLAKAGPPASIVPLMRQNRTR
phosphorylation of GEF-H1S on Ser 810 [3, 4]: marked decrease
phosphorylation of GEF-H1S on Ser 810 ([3]; co-expression with GEF-H1S in mammalian (293T) cells, anti-1009 Western blot, relative to basal phosphorylation, listed as kinase-dead PAK4): inhibit
